Three molecules from US20120276102A1 (Pfizer, published 2012) can be followed below.

Assay [1] has as its target T1, human IL-21R extracellular domain His-Flag fusion protein (human, UniProt Q9HBE5 20-232).
T1 construct: Biotinylated in the HTRF screen; also called hIL-21R-H/F; human IL-21R-H/F
As to the kind of experiment: SPR, Ab captured on anti-human IgG, replicate experiment; Table 7B, human IL-21R-His/FLAG. As for the experimental part: The kinetics of binding of anti-IL-21R antibodies to human and murine IL-21R-H/F was tested on a BIACORE™ surface plasmon resonance instrument. Anti-human IgG antibodies (Invitrogen Corporation) were immobilized onto a research-grade carboxy-methyl-dextran chip (CM5) using standard amine coupling. The surface was activated with EDC/NHS for 7 min at a flow of 20 μl/min. The first flow cell was used as a reference surface to correct for bulk refractive index, matrix effects, and nonspecific binding. The anti-human-Fc antibody was diluted to 20 μg/ml in 10 mM sodium acetate buffer (pH 5.0), and 2950-3405 resonance units (RU) were captured on each of the four flow cells. Remaining activated groups were blocked with 1.0 M ethanolamine-HCl (pH 8.5).
Anti-IL-21R antibodies were diluted to 0.1-0.2 μg/ml in HBS/EP buffer supplemented with 0.2% bovine serum albumin and loaded onto the BIACORE™ chip. Following a brief washing period, solutions of 0-100 nM human IL-21R-H/F or 10-500 nM murine IL-21R-H/F were injected over the chip at a flow rate of 50 μl/min. The association phase was run for 3 min for human and murine IL-21R kinetics, and the dissociation phase was monitored for 15 min for hIL-21R and for 5 min for mIL-21R, followed by two 10 μl injections and one 30 μl injection of glycine (pH 1.5), to regenerate a fully active capturing surface. […]
(In general: Surface plasmon resonance follows binding to a sensor surface in real time, without labels.)

The next assay addresses T2, human soluble IL-4R (human, UniProt P24394 26-232, limits assumed).
T2 construct: also called human sIL-4R
The assay is described as follows: SPR, Ab captured. Summed up: (§1)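 SPR at 25 °C in HBS/EP: antibodies from conditioned media captured (500-700 RU) on amine-coupled anti-human IgG or anti-murine Ig on CM5 chip. 50 nM analyte injected, association 120 s and dissociation 180 s; glycine pH 1.5 regeneration, double-referenced sensorgrams.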

A further assay deals with T3, human IL-13-His/FLAG (human, UniProt P35225 35-146, limits assumed).
T3 construct: Unrelated His/FLAG-tagged control; also called human IL-13-H/F
As to the kind of experiment: SPR, Ab captured. Summed up: as §1

The next assay addresses T4, human IL-2Rβ (human, UniProt P14784 27-239).
T4 sequence (looked up): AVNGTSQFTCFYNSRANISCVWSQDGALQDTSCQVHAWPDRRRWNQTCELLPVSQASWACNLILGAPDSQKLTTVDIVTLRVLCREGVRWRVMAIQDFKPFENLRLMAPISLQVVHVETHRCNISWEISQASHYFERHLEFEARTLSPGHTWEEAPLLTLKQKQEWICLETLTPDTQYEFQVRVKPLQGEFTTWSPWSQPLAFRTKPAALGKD
The assay is described as follows: SPR, Ab captured. Summed up: as §1

Assay [2] deals with T5, rabbit IL-21R-Fc isoform 1 (rabbit).
T5 construct: extracellular domain
As to the kind of experiment: ELISA; competitor 10% conditioned medium containing rabbit IL-21. In general terms: An ELISA detects its analyte on a solid surface through an enzyme-linked reagent.

The target of assay [3] is T6, rabbit IL-21R-Fc isoform 2 (rabbit).
T6 construct: extracellular domain
The description is as above.

Assay [4] has as its target human IL-21R expressed on cells (human, UniProt Q9HBE5 20-538). As to the kind of experiment: cell-based or functional assay.

Changes are numbered by the printed parent chain. Bounds are passed on as bounds.

Chain of human IL-21R expressed on cells (Q9HBE5 20-538 limits assumed): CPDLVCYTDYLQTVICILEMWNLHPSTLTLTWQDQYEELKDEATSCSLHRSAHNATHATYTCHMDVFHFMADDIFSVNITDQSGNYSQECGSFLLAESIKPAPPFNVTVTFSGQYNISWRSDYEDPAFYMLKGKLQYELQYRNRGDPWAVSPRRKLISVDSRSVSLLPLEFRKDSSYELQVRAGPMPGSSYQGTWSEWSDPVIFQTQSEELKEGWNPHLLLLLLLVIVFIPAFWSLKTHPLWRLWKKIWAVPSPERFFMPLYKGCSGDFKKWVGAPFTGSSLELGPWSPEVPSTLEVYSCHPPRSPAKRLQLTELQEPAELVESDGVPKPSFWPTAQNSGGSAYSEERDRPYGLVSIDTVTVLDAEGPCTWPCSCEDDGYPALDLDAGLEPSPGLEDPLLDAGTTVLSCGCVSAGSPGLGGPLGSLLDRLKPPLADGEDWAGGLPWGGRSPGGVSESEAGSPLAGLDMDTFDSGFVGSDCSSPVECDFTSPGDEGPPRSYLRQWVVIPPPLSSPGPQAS
T3 sequence (P35225 35-146 limits assumed): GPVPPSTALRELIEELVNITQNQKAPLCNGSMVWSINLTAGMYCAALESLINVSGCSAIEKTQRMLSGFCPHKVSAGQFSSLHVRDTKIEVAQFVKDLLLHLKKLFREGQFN
T1 sequence (Q9HBE5 20-232): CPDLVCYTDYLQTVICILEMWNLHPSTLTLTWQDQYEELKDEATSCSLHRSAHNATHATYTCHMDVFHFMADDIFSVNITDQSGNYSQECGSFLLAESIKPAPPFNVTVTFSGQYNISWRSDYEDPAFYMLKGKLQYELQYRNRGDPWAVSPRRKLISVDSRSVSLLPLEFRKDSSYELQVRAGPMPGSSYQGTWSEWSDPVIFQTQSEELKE

B1: AbQ (antibody, human IgG1, V domains shown)
VH: QVQLQESGPGLVKPSETLSLTCAVSGYSISSGYYWGWIRQPPGKGLEWIGSISHTGNTYYNPPLKSRVTISVDTSKNQFSLKLSSVTAADTAVYYCARFMGFGRPEYWGQGTLVTVSS
VL: SSELTQDPAVSVALGQTVRITCQGDSLRTYYASWYQQKPGQAPVLVIYGKHKRPSGIPDRFSGSSSGNTASLTITGAQAEDEADYYCVARSVVGNPHVLFGGGTQLTVL
notes: CDR3 graft, residue limits derived as for m29; also called VH3/VL2; VH3DM/VL2
Broadly, the kon is the rate constant with which the complex forms. Lower therefore signals slower complex formation. In assay [1], B1 had a kon of 439000 M⁻¹ s⁻¹.

B2: parental 18A5 antibody (antibody, V domains shown)
VH: B1 VH with P14T, F99G, M100G, F102I, G103S, Q110K
VL: SSELTQDPPVSVALGQTVTLTCQGDSLRTYYASWYQQKSGQAPILLLYGKHKRPSGIPDRFSGSTSGDTASLTITGAQAEDEADYYCNSRDSSGNPHVLFGGGTQLTVL
notes: also called 18A5 IgG
B2: the binding result with human soluble IL-4R, with human IL-13-His/FLAG and with human IL-2Rβ was “no binding (tested: 50 nM)” in each case.

B3: AbS (antibody, V domains shown)
VH: B1 VH with F99G, M100G, F102I, G103S
VL: B1 VL with V88M, A89S, V92I, V93W
notes: CDR3 graft, residue limits derived as for m29; also called VHP/VL6; VHPTM/VL6
For the molecule B3, the “fold reduction of binding in the presence of rabbit IL-21” value in assay [2] is roughly 10 fold. The “fold reduction of binding in the presence of rabbit IL-21” value in assay [3] was roughly 10 fold. Besides, in assay [4], the “IC50, IL-21-induced CD19 expression in human whole blood” value stood at 7 ng/mL; the “IC50, IL-21-induced GZMB expression in human whole blood” value is less than 3 ng/mL; the “IC50, IL-21-induced IFNG expression in human whole blood” value turned out to be 15 ng/mL; the “IC50, IL-21-induced IL2Rα expression in human whole blood” value was found to be 2 ng/mL. Also, in assay [4], the “IC50, IL-21-induced IL6 expression in human whole blood” value was 5 ng/mL and the “IC50, IL-21-induced PRF1 expression in human whole blood” value was 7 ng/mL.
